Test results taken from patent US20200140561A1 (BLUEFIN BIOMEDICINE, published 2020).
Numbering of substitutions follows the chain as printed.

B1: 37E10_15B5 (antibody, V domains shown)
VH: QVQLVESGGGVVQPGRSLRLSCAASGFTFRSHGMHWVRQAPGKGLEWVAVIWYDGSSEYYADSVKGRFTISRDNSKNTLYLQMNSLRAEDTAVYYCARENVYGSGWFFDYWGQGTLVTVSS
VL: EIVMTQSPATLSVSPGERASLSCRASQSVGSNLAWYQQRPGQAPRLLIFGASTRATGIPARFSGSRSGTEFTLTISSLQSEDFALYYCQQYNNWPPWTFGQGTKLEIK
B2: 44E5_15C5 (antibody, V domains shown)
VH: B1 VH with E58D, Y80F, R87S
VL: B1 VL with R39K
B3: 36A10_21B6 (antibody, V domains shown)
VH: QGQVVESGGGVVQPGRSLRLSCAASGFTFSSYTLHWVRQAPGKGLEWVAVIWYDGSNKYYVDSVKGRFTISRDNSKNTLYLQMNSLRAEDTAVYYCAREYGSGSYYNVYYGMDVWGQGTTVTLSS
VL: DIVMTQSPLSLPVTPGEPASISCRSSQSLLHSNGYNYLDWYLQKPGQSPHLLIYLASNRASGVPDRFSGSGSGTDFTLKISRVEAEDVGFYYCMQTLQIPLTFGGGTKVEIK
B4: 5G8_18A1 (antibody, V domains shown)
VH: QVELQESGPGLVKPSDTLSLTCTVTGGSISTYYWSWIRQPPGKGLEWIGYIFYTGTTNYNPSLKSRVTISVDASKNQFSLKLNSVTAADTAVYYCARDGSLDYWGQGALVTVSS
VL: DIQMTQSPSSLSASVGDRVTITCRASQSISNYLNWYQQKPGKAPKLLIFVASLLQSGVPSRFSGSGSGTDFTLTISSLQPEDFATYYCQQSYSTPFTFGPGTKLEIK
B5: 16H2_17D2 (antibody, V domains shown)
VH: QVQLVESGGGVVQPGGSLRLSCAASGFTFSSHGMHWVRQAPGKGLEWVAVIWYDGSNKFYTDSVQGRFTISRDNSKNTLNLQMNSLRAEDTAVYYCAREGLRAGYYFDFWGQGTLVTVSS
VL: B4 VL with S28R, N31F, L33S, F49Y, V50A, L53S, Y87F, Y92H, F96L, P100G

Assays:
Experiment in all cases: cell-based or functional assay
[1] = biological target: T1, human IL1RAP (human, UniProt Q9NPH3 21-570)
T1 sequence: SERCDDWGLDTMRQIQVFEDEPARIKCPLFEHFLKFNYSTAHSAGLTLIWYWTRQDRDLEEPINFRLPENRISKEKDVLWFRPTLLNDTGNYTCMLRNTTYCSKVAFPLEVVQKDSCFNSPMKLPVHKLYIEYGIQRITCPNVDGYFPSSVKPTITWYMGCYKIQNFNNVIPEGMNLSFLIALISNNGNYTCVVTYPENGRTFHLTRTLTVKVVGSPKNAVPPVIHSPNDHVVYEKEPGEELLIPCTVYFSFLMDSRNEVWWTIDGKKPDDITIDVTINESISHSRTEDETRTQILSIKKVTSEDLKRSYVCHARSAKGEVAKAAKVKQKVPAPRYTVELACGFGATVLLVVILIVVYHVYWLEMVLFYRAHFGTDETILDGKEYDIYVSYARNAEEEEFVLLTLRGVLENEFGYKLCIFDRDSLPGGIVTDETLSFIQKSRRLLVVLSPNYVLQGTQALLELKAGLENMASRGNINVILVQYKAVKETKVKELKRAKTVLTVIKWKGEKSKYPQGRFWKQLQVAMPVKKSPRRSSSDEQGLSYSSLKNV

[2] = biological target: T1, human IL1RAP; remark: listed apart in the source
[3] = biological target: T1, human IL1RAP; remark: listed apart in the source
[4] = biological target: T1, human IL1RAP; remark: listed apart in the source

Binder	EC50 (inhibition of IL-1beta signalling, HEK-Blue IL-1beta reporter cells, 0.5 ng/ml IL-1beta, Abs. 620 nM) [1] [nM]	EC50 (inhibition of IL-1alpha signalling, HEK-Blue IL-1beta reporter cells, 0.5 ng/ml IL-1a, Abs. 620 nM) [2] [nM]	EC50 against IL-1α (IL-1 signaling reporter cell assay) [3] [nM]	EC50 against IL-1β (IL-1 signaling reporter cell assay) [3] [nM]	EC50 (inhibition of IL-33 signalling, HEK-Blue IL-33 reporter cells, 0.5 ng/ml IL-33, Abs. 620 nm; partial, lower plateau about 0.4) [4] [nM]	EC50 (inhibition of IL-33 signalling, HEK-Blue IL-33 reporter cells, 0.5 ng/ml IL-33, Abs. 620 nm; partial) [4] [nM]
B1	0.15	0.19	< 1	< 1	0.32	–
B2	0.17	0.18	< 1	< 1	0.44	–
B3	0.29	0.66	–	–	–	1.76
B4	0.58	0.83	–	–	–	–
B5	0.1	0.09	–	–	–	–
